A protein production outcome set (Wang et al. 2014)

Assay: label from the status in PepcDB records

Which protein production does the source give for “MKTVPAMLGTPRLFREFFILHLGLWSILCEKATKRNDEECEVQLNIKRNSKHSAWTGELFKIECPVKYCVHRPNVTWCKHNGTIWVPLEVGPQLYTSWEENRSVPVFVLHFKPIHLSDNGSYSCSTNFNSQVINSHSVTIHVRERTQNSSEHPLITVSDIPDATNASGPSTMEERPGRTWLLYTLLPLGALLLLLACVCLLCFLKRIQGKEKKPSDLAGRDTNLVDIPASSRTNHQALPSGTGIYDNDPWSSMQDESELTISLQSERNNQGIVYASLNHCVIGRNPRQENNMQEAPTEYASICVRS” here?
The protein production was “not failed”.

For “MKTYSVIAVASLLATNLLTFPSSSLAEIENKTRNSIEAVSHMQSNEKSELQKQLEAAKEREMKLEKREEILKQQEELFIKIDDLKQKKEELLEQAGEHNVQIEEVYQELNELKKQQEELEEKNPLQVKSNDQEKKTNELKSQEELKEKDGVEVKENNGQEEKVHEEFEEQKKKEELKKQQDELRKQQEELKKQQLELEQRIKQELERKQQEEQAKQELELKQKEEQAKRELELKQKEEQVKQELELKQKEEQVKQELELKQKEEQVKQELELKQKEEQEKQELELKQKEEQEKQELELKQKEEQKKQELELKQKEEQEKGERELKQAVSSIQAAPQSFPDVPGWAQESVYYLVHKKVISGMPDGTFSPSKVLSRAEAATIMAKILELEVSEGEKPTFTDSQDHWATPYIAAVEKAGVIKGEGNGKFNPNGQMTRAAMATMLVQAYQLEKKVHEELPTLFPDVKDHWGEKFINILVGMGISSGVDGGRWQPDRSITRAEAAQLVAVTDKSKDNELKMKKVSISKKFFTYNGPSLSSGISKEYGPREVTVYEERDGGWIRIHTDTGFKWVCLVEKKVNMNKNFLTYNEASLSSGISGEYAPQIVTVIEEREGNWIKVYTDLGYKWVCLIDKKVQIDRDFTTYDAPFRSANILDYYGPQAVTVVEERGTWLRIRTYAGYQWLDTKKEAKYLSKVFFAYDSPSFVSRVSGKYAPQTVEVYGEREGGWIQIQTSNGLKWVNEGNINRSQVILNVPSLYQFPELHNGCEVVSLQMLVEHQIGRSLNKVAFAFEMPFDQAKLKNYKTSSQIWGDPDVGFVGDVTGNTPGYSINPEPLKRLLDKYSRGTNLTGNDLSVLEDYVRNGKPVVTWVTVALNNPRAVTTWKTPGGKIIYARMNTHAVVLTGVDDNYVYYNDPFYGTKNVKVSKSRFASIYNQMGKKALSVD”, which protein production is on record?
Its protein production is “failed”.

Which protein production does the source give for “MKTYTSVIFWMRTIACLSIVLIHSITTTFSKMDFLGHGTAIRVFQLMLMFSTPLFVFISEFLLAKNYQVKTKPGFFKNKLIYLGIPYIIINIGIALFYFESKTFDQFMTHLGDTMFHGGAVTYFIVIIFQFYILHILFAKYLIKWKPVPVIIGAVIFATIYWAFRQYAPQSEHPILGLFWEREGWMLFLGWISYFLLGFYTGIYYETFMKKIKKYTWPIIIGAIIATSILVDNYLFGISTWVESKRFDIPFYVKMVILVFFLFASYVKYVPKFILFISNYSFCIYLIHYFFVHELGLLRAASSLRNIAFNFIITLTVSICLAYIFNLSKYGKFIVGGIGHIKYDKVYESYKHGKMD” here?
The protein production was “failed”.

For “MKVAILGAGCYRTHAASGITNFSRASQVAKEAGIPEIAMTHSTITMGAELLHLIPEITEVVVSDPCFAEEPGMVVLDQFDYKAVMEAHLAGDAEKVMPEIREAVKAKAKETPKPPKGCIHFVHPETVGLKVTASDVEAVKDADIVITWLPKGGSQPAIIEKFASEIKKGAIVTHACTIPTPKFAKIFKDLGRDDLNIIAYHPGAVPEMKGQAFLSEGLADAEKVEEFYCMAKTARGEAFKMPANLISPVCDMGSAVTAPVYAAILAYRDAVTQILGAPADFAQMMADEAISQILDLMRNEGIKNMEDKLNPKALTGTADSMCFGPLADILPASLKVLEKHANENKCECGCSIKP”, which protein production is on record?
The protein production was “failed”.

Which protein production does the source give for “MKVALGGTFEPLHEGHKKLIDVAIKLGGRDITIGVTSDRMARARIRSVLPFAIRAENVKRYVMRKYGFEPEIVKITNPYGKTLDVDFEYLVVSPETYEMALKINQKREELGKRKITIVKVDWMMAEDGKPISSTRIKRGEIDRYGG” here?
The protein production was “failed”.

With “MKVEKGDVIRLHYTGKVKETGEIFDTTYEDVAKEARIYNPNGIYGPVPIAVGAGHVLPGLDKRLIGLEVKKKYVIEVPPEEGFGLRDPGKIKIIPLGKFRKSGIIPYPGLEIEVETENGRKMRGRVLTVSGGRVRVDFNHPLAGKTLVYEVEVVEKIEDPIEKIKALIELRLPMIDKDKVIIEISEKDVKLNFKDVDIDPKTLILGEILLESDLKFIGYEKVEFEPTIEELLKPKSAEEQESPNEEQQEESESKAEES” as the sequence, how does the protein production read?
Its protein production is “failed”.

For “MKVFEFEVGKGFLLRLDYGKDLVRQIEEFLEEKGIHAAHISAIGAVRSAVIGYYDQEKKEYVKKELMEPLEILSLSGNVSMKDSKPFCHIHVLLGKDGEVYGGHLFSAEVFACEVFVLPLSGEAPERAFDEQTGLFLWLEHHHHHH”, which protein production is on record?
Its protein production is “not failed”.

Which protein production does the source give for “MKVGIIGLGFRLGYLGYVFKAIDSSFDIVGYVDPDPAGLPGLTEKGISAGKAYGSPEELLASEKLDLLMIGSPNHMHLGHIRLGLQAGLKVFCEKPIVTTIAESIELAHLMAKFGHERLMVGLVLRYSPLYKDLRAIQAEGKLGQIVSIEASEHIEPYHGAFFMRDWRRYERYSGSFMLEKCCHDLDLYNGVVGARPERVASFGGRKSFIPANDPAREGINDLELFHRKPSGWMGSDKVFDSDADIIDYQVAIVEYENGVGMNFHTNLNVPDQFRRFAIMGSRGMAEGDFVRGYLDVHEQLTGNKIVENKYAATELSQHYGADEQMASDLLESVRTGLELPVSTLNALEAGILALAMDEARMKKTVVDLRPIWDRFDEALHARAA” here?
The protein production was “failed”.

With “MKVGVIGASEMAGSAIYKLAKQNLEIDVTGIVRHESKAKKVLGDDAKLIVGDIFALSDNILDKFDVIIDAFGTDPKNAEEHVILAKKLINLVRKNKIRVIFILGAGSLHTGDDEHLVVDDIAQMDNADTWINTPRQQLKELEYLNSIDDVDWLGISPALQFEAGPATEYIEGTDELLYNKDGDSKLTSGTMATVVIKETVDSVHHQERITIANALEHHHHHH” as the sequence, how does the protein production read?
The protein production was “not failed”.

With “MKVIETNFTDAKLLEPRLFGDDRGFFTESYNKKVLETLGVTHSFVQDNVSYSAEAGTIRGLHFQKNPKAQTKLIQVMQGAIYDVIVDLRKDSPTFKQWRGYILSADNHRQLLVPKGFAHGFCTLVPHTIVMYKVDEYYSADHDSGVLWNDKELAIPWPVTSPILSDKDRILPLLQECEDSF” as the sequence, how does the protein production read?
Its protein production is “not failed”.

Which protein production does the source give for “MKVIIIGGETTAYYLARSMLSRKYGVVIINKDRELCEEFAKKLKATIIHGDGSHKEILRDAEVSKNDVVVILTPRDEVNLFIAQLVMKDFGVKRVVSLVNDPGNMEIFKKMGITTVLNLTTLITNTVEALIFPDEFSSIIPLEQGIE” here?
Its protein production is “failed”.

Which protein production does the source give for “MKVLAVAYDPRDFGELATGVRDSLGDAELVFLAVHKAAEEPGKASGYSEKVFVSRTSSPESIALLLEKLISEEKPDIIVGEAYKNLRDALSRVAGKLDLPMATDVSSFSVENGKVKFRKGFLSEKAVMEAEIPKPAVILFLTRFTKPKEISPESQARIVELEPPQGETKVVETRPKEMGGANLEEAEIIVGVGRGFKSKEDLKLAFELAELLNAQIGCTRPIAADLKWLSEDHWIGISGKRVAPKLYLAIGISGSPQHMSGVQNAKIIVAVNKDKNAPIFKQADYGVVADLYQFIPVLIKKLRERKSN” here?
Its protein production is “failed”.

For “MKVLDSRDFAKVKAIAIERASYRNIGALAVYIGSMTGMRISEVLALTWPDIDTKLCVIHVTRSWDHLYGTGFKPTKTDSSVRDIEISPSVIELLNKIHQEQAASYLRTGYRDEDQMIMRDPRHNVITDSACNKALHVIQNKAGIPEDKQITFHGLRHSHVSYLISKGVDIYYISKRLGHSDVTITMKVYGHLLDSQRKQEAHKAVLFMDQILEHHHHHH”, which protein production is on record?
The protein production was “failed”.

For “MKVLESAPSRYDRGIRIITLGKLDEAYDRLTSRIKPGQRVLDVGCGTGALTLRAALRGARVKAIDINPQMLEIARKRVEEAGVTGMVELCEMGVAELNTEASEGYDAVMAGLCFSELTEDELSYALREIKRVLKPGALLLIADEAVPESPVKRVLSWLIRAPLAVIAYLLIQTTTRAVKNLPEKLGEEGFLIESVRRSFMEDFVEIVARKPGR”, which protein production is on record?
Its protein production is “failed”.

With “MKVLFLTANEFEDVELIYPYHRLKEEGHEVYIASFERGTITGKHGYSVKVDLTFDKVNPEEFDALVLPGGRAPERVRLNEKAVSIARKMFSEGKPVASICHGPQILISAGVLRGRKGTSYPGIKDDMINAGVEWVDAEVVVDGNWVSSRVPADLYAWMREFVKLLK” as the sequence, how does the protein production read?
Its protein production is “not failed”.

Which protein production does the source give for “MKVLIDTNVILDVLLNRASFVQDAIAVLELTCGNIQAYVSASAITDIYYIAYKELRDKIRVKNLIKTLLQIITVAGISDKEIMSAIDSDWADFEDSLQNAVAESHDCSMIITRNISDFNGSNLQIISPKDFIVQFTHLEHHHHHH” here?
The protein production was “failed”.

With “MKVLLVLTDAYSDCEKAITYAVNFSEKLGAELDILAVLEDVYNLERANVTFGLPFPPEIKEESKKRIERRLREVWEKLTGSTEIPGVEYRIGPLSEEVKKFVEGKGYELVVWACYPSAYLCKVIDGLNLASLIVK” as the sequence, how does the protein production read?
The protein production was “not failed”.

With “MKVMIEKILLVQTLKRLPRMGWLIKGVQEPESIADHSFGVAFITLVLADVLEKRGKRIDVEKALKMAIVHDLAEAIITDIPLSAQEFVDKDKAEALVFKKVFPEFYELYREYQECSSPEAQLVRIADKLDMILQAYQYELSGNKNLDEFWEAIEEIKRLELSKYLEDILNSVGRLKA” as the sequence, how does the protein production read?
Its protein production is “not failed”.

Which protein production does the source give for “MKVSLGNGEMGVSAHLQPCKAGTTRFFTSNTHSSVVLQGFDQLRIEGLLCDVTLVPGDGDEIFPVHRAMMASASDYFKAMFTGGMKEQDLMCIKLHGVNKVGLKKIIDFIYTAKLSLNMDNLQDTLEAASFLQILPVLDFCKVFLISGVSLDNCVEVGRIANTYNLIEVDKYVNNFILKNFPALLSTGEFLKLPFERLAFVLSSNSLKHCTELELFKAACRWLRLEDPRMDYAAKLMKNIRFPLMTPQDLINYVQTVDFMRTDNTCVNLLLEASNYQMMPYMQPVMQSDRTAIRSDSTHLVTLGGVLRQQLVVSKELRMYDERAQEWRSLAPMDAPRYQHGIAVIGNFLYVVGGQSNYDTKGKTAVDTVFRFDPRYNKWMQVASLNEKRTFFHLSALKGHLYAVGGRSAAGELATVECYNPRMNEWSYVAKMSEPHYGHAGTVYGGLMYISGGITHDTFQNELMCFDPDTDKWMQKAPMTTVRGLHCMCTVGDKLYVIGGNHFRGTSDYDDVLSCEYYSPTLDQWTPIAAMLRGQSDVGVAVFENKIYVVGGYSWNNRCMVEIVQKYDPEKDEWHKVFDLPESLGGIRACTLTVFPPEENPGSPSRESPLSAPSDHS” here?
The protein production was “failed”.

With “MKVTQLSSETLDRAHERFEETLAQMTVAEANTMPAPLIKSVTWLMWHTARELDLQISALNHSDPLWLSQHWTEKFALDLPDETEDWHHTPEEAAKVVVAEKQLLSDYLAASVALTKSYLDQIKEEQLSDVIDKNWTPPVTRQVRLVSAIDDAVMHSGQAVYTRRLVIGK” as the sequence, how does the protein production read?
Its protein production is “not failed”.

For “MKVTVTTLELKDKITIASKALAKKSVKPILAGFLFEVKDGNFYICATDLETGVKATVNAAEISGEARFVVPGDVIQKMVKVLPDEITELSLEGDALVISSGSTVFRITTMPADEFPEITPAESGITFEVDTSLLEEMVEKVIFAAAKDEFMRNLNGVFWELHKNLLRLVASDGFRLALAEEQIENEEEASFLLSLKSMKEVQNVLDNTTEPTITVRYDGRRVSLSTNDVETVMRVVDAEFPDYKRVIPETFKTKVVVSRKELRESLKRVMVIASKGSESVKFEIEENVMRLVSKSPDYGEVVDEVEVQKEGEDLVIAFNPKFIEDVLKHIETEEIEMNFVDSTSPCQINPLDISGYLYIVMPIRLA”, which protein production is on record?
The protein production was “not failed”.
